# Measurements from patent US20120220015A1 (BIOLEX THERAPEUTICS, published 2012).
# How the values were obtained:
# Test in all cases: cell-based or functional assay
# [1] = target: Lemna-derived plasmin from transgenic line BAP01-B2-230 (derived from mature human plasminogen with the … (human, UniProt P00747 97-580)); P00747 581-810, Asn-289 of mature plasminogen (Asn-212 of plasmin) partly N-glycosylated)
# [2] = target: human reference plasmin (commercial, human-derived plasmin) (human)
# [3] = target: Lemna-derived plasmin from transgenic line BAP12-B2-150 (aglycosylated plasmin derived from mature human … (human, UniProt P00747 97-580; P00747 581-810)
# Sequence of Lemna-derived plasmin from transgenic line BAP12-B2-150 (aglycosylated plasmin derived from mature human … (P00747 97-580 N308D, form in doubt, chain 1 of 2): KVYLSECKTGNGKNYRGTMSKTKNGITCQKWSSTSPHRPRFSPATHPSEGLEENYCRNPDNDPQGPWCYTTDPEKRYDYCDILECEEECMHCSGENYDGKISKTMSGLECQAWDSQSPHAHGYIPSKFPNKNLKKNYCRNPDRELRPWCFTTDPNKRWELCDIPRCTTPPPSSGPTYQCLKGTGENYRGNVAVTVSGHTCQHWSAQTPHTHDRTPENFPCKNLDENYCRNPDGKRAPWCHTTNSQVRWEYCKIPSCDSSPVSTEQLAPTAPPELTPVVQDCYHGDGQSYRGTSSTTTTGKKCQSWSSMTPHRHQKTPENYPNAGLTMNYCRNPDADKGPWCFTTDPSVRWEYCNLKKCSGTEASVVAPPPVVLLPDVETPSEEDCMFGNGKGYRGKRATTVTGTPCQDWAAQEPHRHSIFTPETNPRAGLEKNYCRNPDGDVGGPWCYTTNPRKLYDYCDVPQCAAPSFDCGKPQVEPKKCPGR
# Sequence of Lemna-derived plasmin from transgenic line BAP12-B2-150 (aglycosylated plasmin derived from mature human … (P00747 581-810 I701V, form in doubt, chain 2 of 2): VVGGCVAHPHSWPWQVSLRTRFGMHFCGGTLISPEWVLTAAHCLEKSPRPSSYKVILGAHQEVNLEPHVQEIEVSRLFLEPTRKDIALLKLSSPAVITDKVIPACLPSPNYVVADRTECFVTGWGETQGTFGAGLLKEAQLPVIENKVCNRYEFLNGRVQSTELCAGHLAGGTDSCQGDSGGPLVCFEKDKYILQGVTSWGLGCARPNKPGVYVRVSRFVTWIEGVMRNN
# Sequence of Lemna-derived plasmin from transgenic line BAP01-B2-230 (derived from mature human plasminogen with the … (P00747 97-580, form in doubt, chain 1 of 2): as the sequence (P00747 97-580 N308D, form in doubt, chain 1 of 2) above, with D212N counted along it
# Sequence of Lemna-derived plasmin from transgenic line BAP01-B2-230 (derived from mature human plasminogen with the … (P00747 581-810 I701V, form in doubt, chain 2 of 2): as the sequence (P00747 581-810 I701V, form in doubt, chain 2 of 2) above
# Sequence of human reference plasmin (commercial, human-derived plasmin) (human) (P00747 20-580, chain 1 of 2): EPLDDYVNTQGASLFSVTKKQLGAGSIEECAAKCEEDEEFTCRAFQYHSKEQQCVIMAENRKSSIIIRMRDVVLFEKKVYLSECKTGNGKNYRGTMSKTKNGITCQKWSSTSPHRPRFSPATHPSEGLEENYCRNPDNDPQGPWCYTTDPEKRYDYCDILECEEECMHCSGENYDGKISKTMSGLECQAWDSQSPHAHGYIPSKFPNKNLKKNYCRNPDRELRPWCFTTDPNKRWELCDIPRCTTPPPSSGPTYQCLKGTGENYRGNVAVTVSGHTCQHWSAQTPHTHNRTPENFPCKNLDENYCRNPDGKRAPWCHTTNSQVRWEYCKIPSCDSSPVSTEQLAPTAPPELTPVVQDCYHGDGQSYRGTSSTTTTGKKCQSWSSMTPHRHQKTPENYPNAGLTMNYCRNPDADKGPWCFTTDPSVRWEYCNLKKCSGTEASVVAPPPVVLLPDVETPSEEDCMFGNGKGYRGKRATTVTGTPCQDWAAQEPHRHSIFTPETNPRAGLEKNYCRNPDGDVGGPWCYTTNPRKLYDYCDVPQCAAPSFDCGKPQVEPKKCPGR
# Sequence of human reference plasmin (commercial, human-derived plasmin) (human) (P00747 581-810, chain 2 of 2): as the sequence (P00747 581-810 I701V, form in doubt, chain 2 of 2) above, with V121I counted along it
binder,measurement,setting,value
"α2-antiplasmin (other, UniProt P08697 40-491, looked up) NQEQVSPLTLLKLGNQEPGGQTALKSPPGVCSRDPTPEQTHRLARAMMAFTADLFSLVAQTSTCPNLILSPLSVALALSHLALGAQNHTLQRLQQVLHAGSGPCLPHLLSRLCQDLGPGAFRLAARMYLQKGFPIKEDFLEQSEQLFGAKPVSLTGKQEDDLANINQWVKEATEGKIQEFLSGLPEDTVLLLLNAIHFQGFWRNKFDPSLTQRDSFHLDEQFTVPVEMMQARTYPLRWFLLEQPEIQVAHFPFKNNMSFVVLVPTHFEWNVSQVLANLSWDTLHPPLVWERPTKVRLPKLYLKHQMDLVATLSQLGLQELFQAPDLRGISEQSLVVSGVQHQSTLELSEVGVEAAAATSIAMSRMSLSSFSVNRPFLFFIFEDTTGLPLFVGSVRNPNPSAPRELKEQQDSPGNKDFLQSLKGFPRGDKLFGPDLKLVPPMEEDYPQFGSPK","percent of plasmin inhibited, no pre-incubation with α2-AP, molar ratio of 1:1 (S-2403 chromogenic assay)",[1],60%
same,"percent of plasmin inhibited, no pre-incubation with α2-AP, molar ratio of 1:1 (S-2403 chromogenic assay)",[2],~90%
same,"percent of plasmin inhibited, no pre-incubation with α2-AP, molar ratio of 1:1 (S-2403 chromogenic assay)",[3],60%
